The record followed here is article doi:10.1101/2021.04.08.439061.

This test concerns the target HLA-A*03:01 (recombinant soluble heavy chain with β2-microglobulin) (human). Briefly: fluorescence polarisation. A general note: Fluorescence polarisation rises when a labelled molecule tumbles more slowly, as on binding a larger partner.

No end group written: not given here. *: point of attachment. 5FAM = O=C1OC2(c3ccc(O)cc3Oc3cc(O)ccc32)c2ccc(C(=O)*)cc21

B1: pWT peptide fluorescently labeled at P5 (5-carboxyfluorescein-modified lysine in place of P5 Gly) (peptide)
peptide: AHHGK(5FAM)WTTK
On to B1, for which the t1/2 of dissociation came to 4.68 min.
